According to paper PMC5678078 (2017):

T1: recombinant matriptase protease domain with an N-terminal thioredoxin tag (Trx-MTX PD) (human) (UniProt Q9Y5Y6)
T1 sequence: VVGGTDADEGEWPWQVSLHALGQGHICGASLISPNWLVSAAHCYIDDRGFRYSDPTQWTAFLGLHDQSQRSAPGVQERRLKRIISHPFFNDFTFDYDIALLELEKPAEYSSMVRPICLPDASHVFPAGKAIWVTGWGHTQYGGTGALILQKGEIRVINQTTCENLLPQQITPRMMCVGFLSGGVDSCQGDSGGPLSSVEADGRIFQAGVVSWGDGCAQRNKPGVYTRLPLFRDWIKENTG

T2: recombinant matriptase protease domain with an N-terminal thioredoxin tag (Trx-MTX PD) (human, UniProt Q9Y5Y6 615-854)
T2 chain: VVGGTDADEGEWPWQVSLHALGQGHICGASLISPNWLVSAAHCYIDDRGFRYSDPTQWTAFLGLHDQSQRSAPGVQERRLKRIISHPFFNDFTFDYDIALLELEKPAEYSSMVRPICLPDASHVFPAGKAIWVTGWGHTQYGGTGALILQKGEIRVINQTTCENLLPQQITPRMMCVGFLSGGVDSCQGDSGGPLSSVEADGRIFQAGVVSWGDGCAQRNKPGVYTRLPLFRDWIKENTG


Columns and labels:
[1] = biological target: T1, recombinant matriptase protease domain with an N-terminal thioredoxin tag (Trx-MTX PD) (human)
[2] = biological target: T1, recombinant matriptase protease domain with an N-terminal thioredoxin tag (Trx-MTX PD) (human); experiment: SPR; BIAcore; Trx-MTX PD amine-coupled to a CM5 chip; GST fusion proteins as analytes at 30 µl/min, 120 sec association, 180 sec dissociation; 10 mM HEPES, 150 mM NaCl, pH 7.4; KD by affinity analysis (BIAevaluation), called estimated
[3] = biological target: T2, recombinant matriptase protease domain …; experiment: SPR

Molecule	Kd [2] [nM]	Kd [3] [nM]	further results
recombinant HAI-2 KD2-deleted mutant (rHAI-2ΔKD2) from the baculovirus expression system (from UniProt O43291 28-197) (domain or fragment)	–	–	inhibition of the in vitro proteolytic activity of Trx-MTX PD (100 nM) on Boc-Gln-Ala-Arg-AMC by rHAI-2ΔKD2 (500 nM) [1]: 99%
recombinant HAI-2 KD1-deleted mutant (rHAI-2ΔKD1) from the baculovirus expression system (from UniProt O43291 28-197) (domain or fragment)	–	–	inhibition of the in vitro proteolytic activity of Trx-MTX PD (100 nM) on Boc-Gln-Ala-Arg-AMC by rHAI-2ΔKD1 (500 nM) [1]: 80%
GST fusion protein of HAI-2 Kunitz domain 2 (GST-KD2) (domain or fragment) CTANAVTGPCRASFPRWYFDVERNSCNNFIYGGCRGNKNSYRSEEACMLRC	10	35.5	–
GST fusion protein of HAI-2 Kunitz domain 1 (GST-KD1) (domain or fragment) CLVSKVVGRCRASMPRWWYNVTDGSCQLFVYGGCDGNSNNYLTKEECLKKC	10	45.7	–
recombinant HAI-2 wild type (rHAI-2 WT) from the baculovirus expression system (domain or fragment) ADRERSIHDFCLVSKVVGRCRASMPRWWYNVTDGSCQLFVYGGCDGNSNNYLTKEECLKKCATVTENATGDLATSRNAADSSVPSAPRRQDSEDHSSDMFNYEEYCTANAVTGPCRASFPRWYFDVERNSCNNFIYGGCRGNKNSYRSEEACMLRCFRQQENPPLPLGSK	–	–	inhibition of the in vitro proteolytic activity of Trx-MTX PD (100 nM) on Boc-Gln-Ala-Arg-AMC by rHAI-2 WT (500 nM) [1]: 99%
